Test results published in patent US20090062512A1, “Comparative ligand mapping from MHC class I positive cells” (priority 2000, published 2009).
Several values for one entry are separate records, joined by “and”; a condition that tells them apart may be missing. Identical values can stand only once.

The substances below were run against A*0201 class I MHC molecules in cells infected with the PR8 strain of influenza A virus (Homo sapiens, UniProt P04439, D140Y/D185E/D98H/E176V/E277Q/G131W/G231S/I119V/I121R/I166T/I218V/L300P/L318F/N151K/N90K/P208A/P217A/Q86G/Q94H/R138H/R169H/T345S).
Format: cell-based

Substance	Fold Increase
AIIGGTFTV	4.17
AIVDKVPSV	1.88
ALASHLIEA	1.67
ALDEKLLNI	1.61
ALDKATVLL	2.13
ALLAGSEYLKL	1.51
ALLDKLYAL	3.1
ALLSAVTRL	Unique
ALMDEVVKA	2.59
ALNDHFVKL	23.02
ALNEKLVNL	1.52
ALQELLSKGL	2.8
ALSDGVHKI	1.88 and 2.36
ALVEIGPRFVL	10.83
ALVSSLHLL	1.51
ALWEAKEGGLL	1.54
AMIELVERL	1.81
AVGKVIPEL	12.46
AVSDGVIKV	8.98
FAITAIKGV	3.49
FIQTQQLHAA	Unique
FLAEEGFYKF	2.98
FLASESLIKQIPR	Unique
FLFNTENKL	1.85
FLGRINEI	1.99

Substance	Fold Increase
FLLEKGYEV	1.81
FLPSYIIDV	2.57
FMFDEKLVTV	1.99
GIDSSSPEV	Unique
GIVEGLMTTV	3.1
GIWGFIKGV	6.1
GLAEDSPKM	2
GLAKLIADV	2.91
GLATDVQTV	3.5
GLDIDGIYRV	1.95
GLDKQIQEL	4.09
GLGPTFKL	unique
GLIDGRLTI	1.67
GLIENDALL	1.71
GLLDPSVFHV	2.17
GLMTTVHAIT	2.5
GLMTTVHAITA	3.2
GLMTTVHAITAT	Unique
GLMTTVHAITATQ	Unique
GLQDFDLLRV	2.29
GLWDKFSEL	2.59
GMASVISRL	Unique
GMYIFLHTV	2.32
GMYVFLHAV	2.73
GVAESIHLWEV	2.89

Substance	Fold Increase
GVIAEILRGV	1.56
GVLDNIQAV	Unique
GVYGDVHRV	2.9
IIMLEALERV	13.68
ILCPMIFNL	2.51
ILDKKVEKV	Unique
ILGYTEHQV	23.91
ILMEHIHKL	5.46
ILSGVVTKM	1.74
ILYDIPDIRL	5.99
IMLEALERV	1.64
KAPPAPLAA	Unique
KIADFGWSV	2.26
KIAPNTPQL	2.63
KIFEMGPVFTL	6.45
KIIDEDGLLNL	1.56
KLDEGNSL	4.32
KLDPTKTTL	2.93
KLEEIIHQI	2.08
KLFDDDETGKISF	Unique
KLFPDTPLAL	Unique
KLIGDPNLEFV	2.82
KLLDFGSLSNL	3.57
KLLEGEESRISL	2.1
KLMELHGEGSS	Unique

Substance	Fold Increase
KLQEFLQTL	2.3
KMLEKLPEL	2.14
KMWDPHNDPNA	Unique
KMYEEFLSKV	1.8
KVFDPVPVGV	1.74
KVPEWVDTV	5.94
LLDANLNIKI	2.78
LLDVPTAAV	5.18
LLDVTPLSL	9.68
LLDVVHPA	33.09
LLDVVHPAA	3.43
LLLDVPTAAV	1.95
LLLDVPTAAVQA	6.24
LMTTVHAITAT	Unique
NDHFVKL	7.75
QLLGSAHEV	4.98
RLDDVSNDV	2.55
RLIDLGVGL	2.03
RLTPKLMEV	2.2
RLWPKIQGL	Unique
RLYPWGVVEV	2.79
RVPPPPPIA	6.54
SIIGRLLEV	56.92
SLAKIYTEA	5.38
SLDQPTQTV	9.84

Substance	Fold Increase
SLFEGTWYL	2.36
SLLDIIEKV	2.56
SLWSIISKV	3.06
SLYEMVSRV	1.87
SMLEDVQRA	2.4
SMMDVDHQI	3.58
SMPDFDLHL	1.83
SMTLAIHEI	2.11
TIAQLHAV	Unique
TLAEIAKVEL	3.32
TLAEVERLKGL	Unique
TLAKYLMEL	6.81
TLDEYTTRV	3.74
TLIDLPGITKV	6.48
TLIGLSIKV	2.28
TLLEDGTFKV	1.67
TLQEVFERATF	Unique
TLWDIQKDLK	1.64
TLWGIQKEL	3.27
TLWPEVQKL	2.97
VINDVRDIFL	1.71
VLEDPVHAV	3.91
VLFDVTGQVRL	2.48
VLLSDSNLHDA	10.95
